According to article PMC4700666, “The structure of a prophenoloxidase (PPO) from Anopheles gambiae provides new insights into the mechanism of PPO activation” (BMC Biology, 2016):

Molecular target: the molecule itself
Experiment: SEC; size exclusion chromatography of purified AgPPO8 against standard proteins; eluted at a similar retention volume as bovine γ-globulin

B1: Anopheles gambiae prophenoloxidase 8 (AgPPO8) (enzyme, UniProt Q8MZM3 1-700, looked up)
chain: MATLTQKFHGLLQHPLEPLFLPKNDGTLFYDLPERFLTSRYSPIGQNLANRFGPNSPASSQVSNDTGVPPTVVTIKDLDELPDLTFATWIKRRDSFSLFNPEHRKAAGKLTKLFLDQPNADRLVDVAAYARDRLNAPLFQYALSVALLHRPDTKSVSVPSLLHLFPDQFIDPAAQVRMMEEGSIVLDENRMPIPIPMNYTATDAEPEQRMAFFREDIGVNLHHWHWHLVYPASGPPDVVRKDRRGELFYYMHQQLLARYQIDRYAQGLGRIEPLANLREPVREAYYPKLLRTSNNRTFCPRYPGMTISDVARSADRLEVRIADIESWLPRVLEAIDAGFAVSDDGVRVPLDETRGIDVLGNILERSAISINRNLYGDVHNMGHVLLAFIHDPRGTYLESSGVMGGVATAMRDPIFYRWHKFIDNIFLRNKARLAPYTMAELSNSNVTLEALETQLDRAGGAVNSFVTFWQRSQVDLRAGIDFSAAGSAFVSFTHLQCAPFVYRLRINSTARSNRQDTVRIFLLPRQNEQGRPLSFEDRRLLAIELDSFRVNLRPGMNNIVRQSSNSSVTIPFERTFGNVEQANAGNAQSRFCGCGWPAHMLLPKGNANGVEFDLFAMVSRFEDDNANVNYDENAGCDDSYAFCGLRDRVYPSRRAMGFPFDRRASNGVRSVADFVAPYKNMRLATVTLRFMNTIIDRPTN
notes: Prophenoloxidase 8 (PPO8) of Anopheles gambiae, zymogen; cDNA amplified from a cDNA pool of second instar larvae; each subunit in the crystal comprises 700 residues (numbered 1-700; pro-region 17-81, domain I 1-16 and 82-196, domain II 197-435, domain III 436-697); Expressed as a SUMO fusion with an N-terminal 6xHis tag; also called A. gambiae PPO8; source: E. coli BL21 gold (DE3), purified …
stoichiometry N: 2
